# Test results as given in the DeepSol protein solubility set.
# Test: soluble on expression in E. coli; label from the status in PepcDB or PDB records
row,Sequence,soluble on expression in E. coli
1,SDEVYLYSDATTSKIARTVTQKLGFSKASSSGTRLHRGYVEEATLEDKPSQTSHIVFVVHGIGQKMDQGRIIKNTAMMREAARKMEEKHFSNHATHVEFLPVEWRSKLTLDGDTVDSITPDKVRGLRDMLNSSAMDIMYYTSPLYRDELVKGLQQELNRLYSLFCSRNPDFEEKGGKVSIVSHSLGCVITYDIMMGWNPGGLYEQLLQKEEELPDERWMSYEERHLLDELYITKRRLREIEDRLHGLKAPSISQTPALKFKVENFFCMGSPLAVFLALRGIRPGNSGSQDHILPREICNRLLNIFHPTDPVAYRLEPLILKHYSNISPVQIHWYNTSNPLPYEHMKPNFLNPAKEPTSVSDSENIAAIPSPVTSPVLSRRHYGESITNIGKASILGAASIGKGLGGMLFSRFGRSSASQPSEPSKDSLEDDKKPSASPSTTTVATQTLPHSGSGFLDSAYFRLQESFFYLPQLLFPENVMQSKDDSLVELEHRIDFELREGLVESRYWSAVTSHTAYWSSLDVALFLLTFMYKHEHDTEAKPSLGSL,soluble
2,MSLKENNMDKAHIGFIGLGLMGAAMVECLQKAGHAVTVLGNRDRTGVEAALARGATEAAHARAVAEASDIVMLCMGTSAQVESRIYGDDGVLAGTREGQVVIDFGTSLPASTRRIGGDLAGKGATYLDAPLGRTPAHARDGLLNIMCSGDKATFDRVKPVLHTLGENVFHLGALGNGHTIKLINNCYSMTTACAMAEAFAIADATGIERQALYNVMAAGPNHSGMMDFINAYANGGRIDLAFTVANAAKDVGYYRQMATEMGLFSRMSIAADATLREARDGGDGGLMVPQMIDWMVRHLGEEGHHHHHH,soluble
3,MKTKPQAPHVDFYEKSELLHFLDCASKHENPQAFMFFRLLAFTGLRRGEALALQWSDINFETNELTVNKTQAVGKRWRTIIQTPKTNTSYRTIVLDPDTAQWLHKWKMTQARQCFELGFNANDPSQLVFTNQQNKLMSPSTVNYFNWSICKKYGLRHIKIHAFRHTFCTLAFEAHAGINEVSKTLGHADLKITEQIYLHVTKKQKNETASKLARYMSELLEHHHHHH,soluble
4,MLTIGGKSFQSRLLLGTGKYPSFDIQKEAVAVSESDILTFAVRRMNIFEASQPNFLEQLDLSKYTLLPNTAGASTAEEAVRIARLAKASGLCDMIKVEVIGCSRSLLPDPVETLKASEQLLEEGFIVLPYTSDDVVLARKLEELGVHAIMPGASPIGSGQGILNPLNLSFIIEQAKVPVIVDAGIGSPKDAAYAMELGADGVLLNTAVSGADDPVKMARAMKLAVEAGRLSYEAGRIPLKQYGTASSPGEGLP,soluble
5,MGKNKQNKFFQMKASANGKTADVFIYGEITKYAWEEYGEVSSITFKNELDELGDDIKTINLYINSPGGSVFETMAIIAMLQRHHAKIISYIDGIGASCASVLPMISDKIIMYANSMMMIHNAWTYASGNADQLRKAADDIERINQSMVQHYLTRAGDKLDEDTLKQLLDAETWLSAEEAMGYGLCDEIIPANNATACLDEKWMKEYKNIPQQLVNAQANISSNEMLERQKIAEEAKANADYIKTILGRIHS,not soluble
6,RVKGTFNKYSQLRSMSGMNGAQVAQRVLQAAGIYDVQVRHVSGSLTDHYDPRTKTVNLSDPVYNATSVAALGVAAHECGHAIQHAKSYAPLSIRS,not soluble
7,MGSDKIHHHHHHMKRMSCLLLGGLLLSGCGKEEAPPEPIRPVVFVEAQPESMQDFGRFAGNIQARYQSVLGFRVAGRIARRNVDVGSEVKKGDLLATLDPTDQQNNVRGRQGDLANVQAQWINAQANARRQQELFDRGVGAQAQLDVALTDLKTASSSLEQAKAAEQQARDQLSYSELHSDHDAVVTEWKVEAGQVVTAGQEVVTLARPDIKEAVIDLPDALADQLPRDVVFTVASQLNPDINTTATIREIEPQADRTTRTRRTRLSLAETPVAFRLGTAISVTLSSTITARMRLPINALQEVDGKRQIWIVDPQSQTVNPRAVNITSRDNDSFVLADGVKAGEKVVSAGVNSLKPGQKVKVDEESPR,not soluble
8,QKIEKQYDADLEQILIQWITTQCRKDVGRPQPGRENFQNWLKDGTVLCELINALYPEGQAPVKKIQASTMAFKQMEQISQFLQAAERYGINTTDIFQTVDLWEGKNMACVQRTLMNLGGLAVARDDGLFSGDPNWFPKKSKE,soluble
9,MGSDKIHHHHHHMKTIEVLSLRKYFPIRKGFLVKKIVGYVKAVDDISFSVEKGKTFALVGESGCGKTTTAKTILRLTNPTAGRVVIDGDDTTYYFMKRRDAENYLETTYVDIFREMREKLSPDQIVDVLEDVDKKYAEIFFKEAKESEEKFYQILLDDIDEKRMKFRRKIQIVFQDPMSSLNPRMTVGDILTEPILFHGLAKTREEAVDMAKDLLKSVGLKEYHLERYPHQFSGGQRQRIAIARAISINPEIVILDEPTASLDVSVQAQVINLFLKLQEEKGFTYLFISHDLGLVRFISHEVGIMYLGRIVEMGNTDEIFDNPLHPYTQALLSAVPVPDPKVERTRKRIILRGGVPSPINRPTGCFFHPRCPYKMPVCEKEYPVMKEISPGHWVACHLHSS,not soluble
10,MKTRITELLKIDYPIFQGGMAWVADGDLAGAVSKAGGLGIIGGGNAPKEVVKANIDKIKSLTDKPFGVNIMLLSPFVEDIVDLVIEEGVKVVTTGAGNPSKYMERFHEAGIIVIPVVPSVALAKRMEKIGADAVIAEGMEAGGHIGKLTTMTLVRQVATAISIPVIAAGGIADGEGAAAGFMLGAEAVQVGTRFVVAKESNAHPNYKEKILKARDIDTTISAQHFGHAVRAIKNQLTRDFELAEKDAFKQEDPDLEIFEQMGAGALAKAVVHGDVDGGSVMAGQIAGLVSKEETAEEILKDLYYGAAKKIQEEASRWTGVVRNDLEHHHHHH,soluble
11,MGSDKIHHHHHHMYVNRIGTFRDHPDLYGVSVYFQGCDAKPKCYMCHNPETWHLSEEYKRPSEVVTKIIDEKLSSLLRYFPKAALVFLGGEPLAPYNREEMLSLSKMFKEKYGERLTVVLFTWRLPKDIVKENLLKYVQYVDEFVMGRYLHTYRRDGFPASKNQIHIDRRTFERMIEAVLRRGHYEGSVFVRKRI,not soluble
12,SNAMKLTPNFYRDRVCLNVLAGSKDNAREIYDAAEGHVLVGVLSKNYPDVASAVVDMRDYAKLIDNALSVGLGAGDPNQSAMVSEISRQVQPQHVNQVFTGVATSRALLGQNETVVNGLVSPTGTPGMVKISTGPLSSGAADGIVPLETAIALLKDMGGSSIKYFPMGGLKHRAEFEAVAKACAAHDFWLEPTGGIDLENYSEILKIALDAGVSKIIPHIYSSIIDKASGNTRPADVRQLLEMTKQLVK,soluble
13,GPDSEMCKDYRVLPRIGYLCPKDLKPVCGDDGQTYNNPCMLCHENLIRQTNTHIRSTGKCEESSTPGTTAASMPPSDE,soluble
14,MRVSLYVVVGGFALLTGCQTLDNHQVTKPEAQTVTTENTVPQYYLATEPESAQVTDVWERIRQGMQLPVPDKKLVNYYRDWYINNPKHLEVISERAAPYMYLIVEELEKRHLPIEIALLPIIESAFDPSASSASAASGLWQFTTPMASHFGLEMNWWYDGRRDVPASTTAALDMLEYLYNKTNNNWLYAIAAYNTGESKVLNAIKRNEDKGLKTDFWSLDLPKETKRYVPQLLALAEVIKHADEYGITLAPINNSPSIEVVDIDSQIDLAMAAGLANMTTTELAKLNPGYNRWATSPLGPHTLVLPIDKSEEFKKALAETESEARVSWLRYTIKSGDSIGSIAQKHHTTVNAIRAANGMKSNNIVAGRHLIIPVSADDKQLYALSTSQKLPKKAAGATSGNKLTYQVKSGDSLWQIAQAHNVSVKQLTAWNHLSKDSKLQTGQKLTIVAPQEKLDSEHIRTVSYKVKSGDSLAQIASKFKVTVAELLEWNSLTPSQYILPGQVLKLVVDESNLNALEHHHHHH,not soluble
15,MIFVLDVGNTNAVLGVFEEGELRQHWRMETDRHKTEDEYGMLVKQLLEHEGLSFEDVKGIIVSSVVPPIMFALERMCEKYFKIKPLVVGPGIKTGLNIKYENPREVGADRIVNAVAGIHLYGSPLIIVDFGTATTYCYINEEKHYMGGVITPGIMISAEALYSRAAKLPRIEITKPSSVVGKNTVSAMQSGILYGYVGQVEGIVKRMKEEAKQEPKVIATGGLAKLISEESNVIDVVDPFLTLKGLYMLYERNANLQHEKGEHHHHHH,soluble
16,MEEEGSPDIIIVGAGISGLSTAVGLHRLGIRSMVLESSETLRATGFAFTTWFNAWKAMEALGVSQHIRSLHDRLEGWVVGTISAGTPPTEMLFPESEEYESRCVQRKLLLEALAGELPEETIRFSSKVVHIELSGCYKKVHLSDGTILKTKVLVGCDGVYSVVGKWLGFKNPATTARLAIRGLTHFPEGHGFGKRFFQFYGDGVRSGFIPCDHNTVYWFLTHTSTDIDEETNSEILKEFVLNKIKDLPENIKNVVETTDLDSMVMSQLKYRPPWELLWSNITKDNVCVAGDALHPMTPDIGQGGCSAMEDGVILARCLGEAIKAKSLKGETEENEEEGYKRIEEGLKKYAGERKWRSIDLITTAYTVGFIQQSRGKWMNMFRDRFLSSYLSRMLLKKSHFDCGSLVP,soluble
17,MTAESPTIRLERYSERHVEGLTALYNDPAVARQVLQMPYQSVEQRRKRLHDSADDDRLLILVALHQGDVIGSASLEQHPRIRRSHSGSIGMGVAVAWQGKGVGSRLLGELLDIADNWMNLRRVELTVYTDNAPALALYRKFGFETEGEMRDYAVRDGRFVDVYSMARLRRVEGRVGE,soluble
18,MGNTLGLAPMGTLPRRSPRREEPLPNPGSFDELHRLCKDVFPAQMEGVKLVVNKVLSSHFQVAHTIHMSALGLPGYHLHAAYAGDWQLSPTEVFPTVVGDMDSSGSLNAQVLLLLAERLRAKAVFQTQQAKFLTWQFDGEYRGDDYTATLTLGNPDLIGESVIMVAHFLQSLTHRLVLGGELVYHRRPGEEGAILTLAGKYSAVHWVATLNVGSGGAHASYYHRANEQVQVGVEFEANTRLQDTTFSFGYHLTLPQANMVFRGLVDSNWCVGAVLEKKMPPLPVTLALGAFLNHWRNRFHCGFSITVG,soluble
19,MSLTVFKSPITGRTYHLVFNDEFDDGVIDTLKWDTRSRRSPFTRRGMYQEKPYYVLCHEDWTKELHGELRLEVSKYPTQNNVVMTGGILSLGRFMARYGYYETKASFRDCIGEGYWPAFWIHFDEADKYGKGTEIDVFEYIPKDKQIFQTLHWYKKQAMEEQQSEVQHAALDYDKSGQFKEHRSSTKYFVLDEAQSKEHTFAVEWTPEELIFYTDGKVTRRVNRKDDPKQVPSAYQMVYFSCSAGEWGGNVMENQVPAYVYFDYCRCYQESDQDAIYTVKGNGMKVPASRRVGKEGHHHHHH,not soluble
20,MAHHHHHHMSSQKESKKRKSDALDQACLELSEEVENAEEVPKKNDEVEEEDLETQFSNWKVNSGLLYDFVSRKELEWPSLSIDFGDYHNENVEDSVFNQIVCVGTHTSNKELNYLYVCEVLFPLEQLPQENCIYKTNQNYEGFDFCPDKKKFTIQSKIAHEGEVNRIKFLPLEKKNFVVTKAIDGNLHLFDINKHEIETSEDKMSPEVSFIGNSSDGFGLDFNAEKKYALTCGNDGVLNLYDYTEMDSKKVSPFYSVKYKSPLNDVCATNDPNLILSCADNGYILMYDIRVKGEEPAQQVLGQQVAVNCISLNKFTGHFASGSENGKIKIWDIKRFSEPQHIIHAHKEPIIRLNFSPNDSSILGSASTSRFINIYNLTKIGEELDAIDLSDGPSELIFSHGGHTQPITDFNWNHHKQLKMFIGSTGEDNTLQFWQLKTELLDEANTVPTSNTDVE,not soluble
21,MSLTEFWNSFSNLFTGGRSTNRKIILVLLIMVLSSGVCSADNYVGGIPLTSAHSGTVSGGVYCDSYYGMGDQEAKASNTIEKTFTVPDNANVEWAMLLTNVYCGHMQNNYQGKAKVDFNGKNLGTETLNVPYTYSYNGGNGHVQVNDHVNRVTSDYMMYYDVTGLVKAGKNTAVVKTDPLDSSFDGRIRLVTLVVAYNDGSKKTIWYQVNRGHDADSYYSDDEMNENYIGSTAFQAALPEGSSLTDSKLTLVYQASSDGAYAFNGNALSSGTPQGTFSGSNTWDVKDSLKSSGTNTLTYDRTASFYKSVLGILTAEYTTSSSGDSTDDTPADNEGHHHHHH,soluble
